Assay results taken from the supplement of paper PMC10598134.
± gives the standard deviation.

Experiment: collision cross section of modified peptide (TIMS, N2, iRT-aligned); higher = larger / more extended gas-phase ion
Method in brief: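 Synthetic peptide pools (~100 fmol/µL in 2% acetonitrile/0.1% formic acid, iRT standard spiked 1:40) were separated on a 120-min nanoflow C18 gradient at 60 °C. They were analysed on a timsTOF Pro/HT (dda-PASEF, nitrogen, ~2.4 mbar) and identified with MaxQuant. 1/K0 was calibrated with three reference ions and aligned run-wise to the median iRT peptide deviation. Collision cross section came from the Mason-Schamp equation, averaging 1–3 technical replicates of the most abundant feature per charge state.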

[1] = charge state: 2, modification: Trimethyl (K)
[2] = charge state: 3, modification: Trimethyl (K)
[3] = charge state: 2, modification: hydroxyisobutyryl
[4] = charge state: 2, modification: Acetyl (K)
[5] = charge state: 3, modification: Acetyl (K)
[6] = charge state: 3, modification: Butyryl
[7] = charge state: 3, modification: Crotonyl
[8] = charge state: 3, modification: Formyl
[9] = charge state: 2, modification: Glutarylation
[10] = charge state: 3, modification: Glutarylation
[11] = charge state: 3, modification: GlyGly (K)
[12] = charge state: 3, modification: Malonyl
[13] = charge state: 3, modification: Methyl (K)
[14] = charge state: 3, modification: Succinyl
[15] = charge state: 3, modification: hydroxyisobutyryl
[16] = charge state: 3, modification: Biotin
[17] = charge state: 2, modification: Butyryl
[18] = charge state: 2, modification: Crotonyl
[19] = charge state: 3, modification: Dimethyl (K)
[20] = charge state: 2, modification: Formyl
[21] = charge state: 2, modification: GlyGly (K)
[22] = charge state: 2, modification: Malonyl
[23] = charge state: 2, modification: Methyl (K)
[24] = charge state: 2, modification: Succinyl
[25] = charge state: 2, modification: Dimethyl (K)
[26] = charge state: 2, modification: Propionyl

Sequence: IGNSYFKEEK [_IGNSYFK(Trimethyl (K))EEK_]
- collision cross section [1]: 378.87 ± 0.63 Å²
- collision cross section [2]: 441.97 ± 1.8 Å²

Sequence: IGNSYFKEEK [_IGNSYFK(hydroxyisobutyryl)EEK_]
- collision cross section [3]: 380.01 ± 0.8 Å²

Sequence: IGSLDNITHVPGGGNK [_IGS(HexNAc (ST))LDNITHVPGGGNK_]
- collision cross section (charge state: 3, modification: HexNAc (ST)): 493.45 ± 0.96 Å²

Sequence: IHNAENIQPGEQKYEYK [_IHNAENIQPGEQK(Acetyl (K))YEYK_]
- collision cross section [4]: 481.31 Å²
- collision cross section [5]: 525.52 ± 2.1 Å²

Sequence: IHNAENIQPGEQKYEYK [_IHNAENIQPGEQK(Butyryl)YEYK_]
- collision cross section [6]: 530.34 ± 2.7 Å²

Sequence: IHNAENIQPGEQKYEYK [_IHNAENIQPGEQK(Crotonyl)YEYK_]
- collision cross section [7]: 531.58 ± 2.8 Å²

Sequence: IHNAENIQPGEQKYEYK [_IHNAENIQPGEQK(Formyl)YEYK_]
- collision cross section [8]: 518.35 ± 1.3 Å²

Sequence: IHNAENIQPGEQKYEYK [_IHNAENIQPGEQK(Gluratylation)YEYK_]
- collision cross section [9]: 490.8 ± 1.2 Å²
- collision cross section [10]: 532.09 ± 1.1 Å²

Sequence: IHNAENIQPGEQKYEYK [_IHNAENIQPGEQK(GlyGly (K))YEYK_]
- collision cross section [11]: 529.6 ± 1.2 Å²

Sequence: IHNAENIQPGEQKYEYK [_IHNAENIQPGEQK(Malonyl)YEYK_]
- collision cross section [12]: 527.67 ± 2.8 Å²

Sequence: IHNAENIQPGEQKYEYK [_IHNAENIQPGEQK(Methyl (K))YEYK_]
- collision cross section [13]: 526.19 ± 0.79 Å²

Sequence: IHNAENIQPGEQKYEYK [_IHNAENIQPGEQK(Succinyl)YEYK_]
- collision cross section [14]: 525.87 ± 2 Å²

Sequence: IHNAENIQPGEQKYEYK [_IHNAENIQPGEQK(Trimethyl (K))YEYK_]
- collision cross section [2]: 526.11 ± 2.2 Å²

Sequence: IHNAENIQPGEQKYEYK [_IHNAENIQPGEQK(hydroxyisobutyryl)YEYK_]
- collision cross section [3]: 491.39 ± 0.68 Å²
- collision cross section [15]: 532.88 ± 2 Å²

Sequence: IHPEGPPLK [_IHP(Hydroxyproline)EGPPLK_]
- collision cross section (charge state: 2, modification: Hydroxyproline): 331.8 ± 0.88 Å²
- collision cross section (charge state: 3, modification: Hydroxyproline): 438.36 ± 0.43 Å²

Sequence: IHVQSSSDSSDEPAEKR [_IHVQSSSDSSDEPAEK(Acetyl (K))R_]
- collision cross section [4]: 446.96 ± 2.2 Å²
- collision cross section [5]: 501.64 ± 1.1 Å²

Sequence: IHVQSSSDSSDEPAEKR [_IHVQSSSDSSDEPAEK(Biotin)R_]
- collision cross section [16]: 513.52 Å²

Sequence: IHVQSSSDSSDEPAEKR [_IHVQSSSDSSDEPAEK(Butyryl)R_]
- collision cross section [17]: 452.33 ± 0.51 Å²
- collision cross section [6]: 504.47 ± 2.6 Å²

Sequence: IHVQSSSDSSDEPAEKR [_IHVQSSSDSSDEPAEK(Crotonyl)R_]
- collision cross section [18]: 451.2 Å²
- collision cross section [7]: 506.27 ± 1.7 Å²

Sequence: IHVQSSSDSSDEPAEKR [_IHVQSSSDSSDEPAEK(Dimethyl (K))R_]
- collision cross section [19]: 519.62 ± 3.4 Å²

Sequence: IHVQSSSDSSDEPAEKR [_IHVQSSSDSSDEPAEK(Formyl)R_]
- collision cross section [20]: 447.23 Å²
- collision cross section [8]: 491.34 ± 2.1 Å²

Sequence: IHVQSSSDSSDEPAEKR [_IHVQSSSDSSDEPAEK(Gluratylation)R_]
- collision cross section [9]: 455.23 ± 1.5 Å²
- collision cross section [10]: 511.69 ± 2 Å²

Sequence: IHVQSSSDSSDEPAEKR [_IHVQSSSDSSDEPAEK(GlyGly (K))R_]
- collision cross section [21]: 469.51 Å²
- collision cross section [11]: 539.73 ± 0.58 Å²

Sequence: IHVQSSSDSSDEPAEKR [_IHVQSSSDSSDEPAEK(Malonyl)R_]
- collision cross section [22]: 452 ± 1.6 Å²
- collision cross section [12]: 506.71 ± 1.6 Å²

Sequence: IHVQSSSDSSDEPAEKR [_IHVQSSSDSSDEPAEK(Methyl (K))R_]
- collision cross section [23]: 448.84 Å²
- collision cross section [13]: 522.27 ± 1 Å²

Sequence: IHVQSSSDSSDEPAEKR [_IHVQSSSDSSDEPAEK(Propionyl)R_]
- collision cross section (charge state: 3, modification: Propionyl): 506.45 ± 1.4 Å²

Sequence: IHVQSSSDSSDEPAEKR [_IHVQSSSDSSDEPAEK(Succinyl)R_]
- collision cross section [24]: 452.62 ± 0.81 Å²
- collision cross section [14]: 507.09 ± 1.9 Å²

Sequence: IHVQSSSDSSDEPAEKR [_IHVQSSSDSSDEPAEK(Trimethyl (K))R_]
- collision cross section [2]: 528.1 ± 1.6 Å²

Sequence: IHVQSSSDSSDEPAEKR [_IHVQSSSDSSDEPAEK(hydroxyisobutyryl)R_]
- collision cross section [3]: 455.71 ± 0.4 Å²
- collision cross section [15]: 514.66 ± 3.7 Å²

Sequence: IINEPTAAAIAYGLDKK [_IINEPTAAAIAYGLDK(Acetyl (K))K_]
- collision cross section [4]: 458.66 ± 2.6 Å²
- collision cross section [5]: 554.46 ± 1.6 Å²

Sequence: IINEPTAAAIAYGLDKK [_IINEPTAAAIAYGLDK(Butyryl)K_]
- collision cross section [17]: 465.29 ± 0.5 Å²
- collision cross section [6]: 559.62 ± 0.45 Å²

Sequence: IINEPTAAAIAYGLDKK [_IINEPTAAAIAYGLDK(Crotonyl)K_]
- collision cross section [18]: 463.28 ± 1.3 Å²
- collision cross section [7]: 561.41 ± 1.2 Å²

Sequence: IINEPTAAAIAYGLDKK [_IINEPTAAAIAYGLDK(Dimethyl (K))K_]
- collision cross section [25]: 490.46 ± 1.8 Å²
- collision cross section [19]: 554.13 ± 0.54 Å²

Sequence: IINEPTAAAIAYGLDKK [_IINEPTAAAIAYGLDK(Formyl)K_]
- collision cross section [20]: 458.24 ± 1.2 Å²
- collision cross section [8]: 548.84 ± 1.7 Å²

Sequence: IINEPTAAAIAYGLDKK [_IINEPTAAAIAYGLDK(Gluratylation)K_]
- collision cross section [9]: 470.31 ± 1.8 Å²
- collision cross section [10]: 565.52 ± 1.3 Å²

Sequence: IINEPTAAAIAYGLDKK [_IINEPTAAAIAYGLDK(GlyGly (K))K_]
- collision cross section [21]: 510.84 ± 1.5 Å²
- collision cross section [11]: 560.44 ± 1.9 Å²

Sequence: IINEPTAAAIAYGLDKK [_IINEPTAAAIAYGLDK(Malonyl)K_]
- collision cross section [22]: 458.91 ± 0.99 Å²

Sequence: IINEPTAAAIAYGLDKK [_IINEPTAAAIAYGLDK(Methyl (K))K_]
- collision cross section [23]: 488.76 ± 3.7 Å²
- collision cross section [13]: 550.89 ± 0.34 Å²

Sequence: IINEPTAAAIAYGLDKK [_IINEPTAAAIAYGLDK(Succinyl)K_]
- collision cross section [24]: 465.22 ± 1.4 Å²
- collision cross section [14]: 564.64 ± 0.073 Å²

Sequence: IINEPTAAAIAYGLDKK [_IINEPTAAAIAYGLDK(Trimethyl (K))K_]
- collision cross section [1]: 500.2 ± 1.5 Å²
- collision cross section [2]: 559.85 ± 0.91 Å²

Sequence: IINEPTAAAIAYGLDKK [_IINEPTAAAIAYGLDK(hydroxyisobutyryl)K_]
- collision cross section [3]: 464.51 ± 4.5 Å²
- collision cross section [15]: 564.39 ± 3 Å²

Sequence: IISSIEQKEENK [_IISSIEQK(Acetyl (K))EENK_]
- collision cross section [4]: 401.35 ± 0.23 Å²

Sequence: IISSIEQKEENK [_IISSIEQK(Biotin)EENK_]
- collision cross section (charge state: 2, modification: Biotin): 422.44 ± 3 Å²
- collision cross section [16]: 481.73 ± 1.6 Å²

Sequence: IISSIEQKEENK [_IISSIEQK(Butyryl)EENK_]
- collision cross section [17]: 408.13 ± 0.85 Å²
- collision cross section [6]: 479 Å²

Sequence: IISSIEQKEENK [_IISSIEQK(Crotonyl)EENK_]
- collision cross section [18]: 407.53 ± 0.9 Å²

Sequence: IISSIEQKEENK [_IISSIEQK(Dimethyl (K))EENK_]
- collision cross section [25]: 410.65 ± 1.1 Å²
- collision cross section [19]: 464.23 ± 1.4 Å²

Sequence: IISSIEQKEENK [_IISSIEQK(Formyl)EENK_]
- collision cross section [20]: 398.84 ± 0.2 Å²

Sequence: IISSIEQKEENK [_IISSIEQK(Gluratylation)EENK_]
- collision cross section [9]: 411.03 ± 0.6 Å²
- collision cross section [10]: 467.18 ± 1.7 Å²

Sequence: IISSIEQKEENK [_IISSIEQK(GlyGly (K))EENK_]
- collision cross section [21]: 403.29 ± 1.5 Å²
- collision cross section [11]: 482.93 Å²

Sequence: IISSIEQKEENK [_IISSIEQK(Malonyl)EENK_]
- collision cross section [22]: 405.63 ± 0.59 Å²

Sequence: IISSIEQKEENK [_IISSIEQK(Methyl (K))EENK_]
- collision cross section [23]: 408.26 ± 2.5 Å²
- collision cross section [13]: 450.18 ± 5 Å²

Sequence: IISSIEQKEENK [_IISSIEQK(Propionyl)EENK_]
- collision cross section [26]: 403.07 ± 0.65 Å²

Sequence: IISSIEQKEENK [_IISSIEQK(Succinyl)EENK_]
- collision cross section [24]: 408.03 ± 0.55 Å²
- collision cross section [14]: 479.06 ± 2.5 Å²

Sequence: IISSIEQKEENK [_IISSIEQK(Trimethyl (K))EENK_]
- collision cross section [1]: 411.54 ± 1.1 Å²
- collision cross section [2]: 448.49 ± 1.5 Å²

Sequence: IISSIEQKEENK [_IISSIEQK(hydroxyisobutyryl)EENK_]
- collision cross section [3]: 408.38 ± 0.3 Å²
- collision cross section [15]: 478.99 ± 4 Å²

Sequence: ILDLKTGTVK [_ILDLK(Acetyl (K))TGTVK_]
- collision cross section [4]: 355.21 ± 0.89 Å²

Sequence: ILDLKTGTVK [_ILDLK(Butyryl)TGTVK_]
- collision cross section [17]: 361.67 ± 1.2 Å²

Sequence: ILDLKTGTVK [_ILDLK(Crotonyl)TGTVK_]
- collision cross section [18]: 360.69 ± 0.88 Å²

Sequence: ILDLKTGTVK [_ILDLK(Dimethyl (K))TGTVK_]
- collision cross section [25]: 355.49 ± 0.51 Å²

Sequence: ILDLKTGTVK [_ILDLK(Formyl)TGTVK_]
- collision cross section [20]: 351.57 ± 1 Å²

Sequence: ILDLKTGTVK [_ILDLK(Gluratylation)TGTVK_]
- collision cross section [9]: 368.56 ± 0.72 Å²

Sequence: ILDLKTGTVK [_ILDLK(GlyGly (K))TGTVK_]
- collision cross section [21]: 373.1 ± 0.25 Å²
- collision cross section [11]: 439.15 ± 0.43 Å²

Sequence: ILDLKTGTVK [_ILDLK(Malonyl)TGTVK_]
- collision cross section [22]: 359.66 ± 0.75 Å²

Sequence: ILDLKTGTVK [_ILDLK(Methyl (K))TGTVK_]
- collision cross section [23]: 356.44 ± 1 Å²

Sequence: ILDLKTGTVK [_ILDLK(Propionyl)TGTVK_]
- collision cross section [26]: 359.51 ± 0.33 Å²

Sequence: ILDLKTGTVK [_ILDLK(Succinyl)TGTVK_]
- collision cross section [24]: 362.99 ± 0.74 Å²
